Laboratory results published in the supplement of paper PMC10724198.

Key:
[1] = tested on: Saccharomyces cerevisiae; test: protein stability index of tFT-peptide fusion in wild type (PSI (0-1 scale)); higher = more stable (slower turnover); conditions: genetic background: wild type
[2] = tested on: Saccharomyces cerevisiae; test: protein stability index of tFT-peptide fusion in deletion strain of DOA10 (PSI (0-1 scale)); higher = more stable (slower turnover)
Protocol: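 MPS profiling in S. cerevisiae of two library types built from selected 12-aa C-degron peptides (IN1, IN2, LN1, LN3, VN2, R1-R5, W1-W3, Atg1 and Rpa12 C-termini): saturation mutagenesis libraries and C-terminal +1 capping libraries (13 aa). Each peptide is fused to the C-terminus of a sfGFP-mCherry timer, after a GGGS linker. Cells are FACS-sorted into 8 mCherry/sfGFP bins and sequenced. PSI runs from 0 (unstable) to 1 (stable), measured once in wild type and in the das1Δ or doa10Δ background.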
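Throughout, for protein stability index of tFT-peptide fusion in deletion strain of DOA10: PSI per variant is the weighted mean of its sequencing read distribution over the sorted stability bins, counting only variants with over 10 reads summed across bins.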
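Throughout, for protein stability index of tFT-peptide fusion in wild type: PSI derived as read-weighted mean over the 8 sorting bins, only variants exceeding 10 total reads kept, mCherry placed adjacent to the peptide and sfGFP distal.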

Row | Sequence | protein stability index [1] | protein stability index [2]
1 | AITLPMCPLNLR | 0.645 | 0.673
2 | AITLPMCPLSLR | 0.596 | 0.665
3 | AITLPMCPLYLR | 0.135 | 0.675
4 | AITLPMCPVLLR | 0.322 | 0.623
5 | AITLPMCPWLLR | 0.652 | 0.667
6 | AITLPMMPLLLR | 0.187 | 0.639
7 | AITLPMPPLLLR | 0.257 | 0.682
8 | AITLPMSPLLLR | 0.276 | 0.673
9 | ALVSLPILLFFR | 0.0758 | 0.653
10 | ARTLPMCPLLLR | 0.311 | 0.669
11 | ASLRVLLPLYFR | 0.285 | 0.666
12 | CDVSLPILLFFR | 0.0512 | 0.648
13 | CFVSLPILLFFR | 0.0595 | 0.579
14 | CLKSLPILLFFR | 0.083 | 0.618
15 | CLLSLPILLFFR | 0.0527 | 0.571
16 | CLVALPILLFFR | 0.0608 | 0.512
17 | CLVGLPILLFFR | 0.0666 | 0.589
18 | CLVPLPILLFFR | 0.0703 | 0.57
19 | CLVSLAILLFFR | 0.248 | 0.351
20 | CLVSLEILLFFR | 0.211 | 0.262
21 | CLVSLIILLFFR | 0.298 | 0.363
22 | CLVSLPILLEFR | 0.518 | 0.638
23 | CLVSLPILLFFE | 0.454 | 0.57

Row | Sequence | protein stability index [1] | protein stability index [2]
24 | CLVSLPILLFFG | 0.447 | 0.52
25 | CLVSLPILLFFH | 0.204 | 0.474
26 | CLVSLPILLFFI | 0.197 | 0.436
27 | CLVSLPILLFFRT | 0.0656 | 0.516
28 | CLVSLPILLFFRY | 0.0612 | 0.483
29 | CLVSLPILLFGR | 0.492 | 0.523
30 | CLVSLPILLFTR | 0.314 | 0.477
31 | CLVSLPILLTFR | 0.0802 | 0.627
32 | CLVSLPINLFFR | 0.0948 | 0.682
33 | CLVSLPIQLFFR | 0.0792 | 0.658
34 | CLVSLPITLFFR | 0.104 | 0.65
35 | CLVSLRILLFFR | 0.152 | 0.282
36 | CLVSTPILLFFR | 0.132 | 0.623
37 | CLVWLPILLFFR | 0.0521 | 0.359
38 | CRVSLPILLFFR | 0.0571 | 0.62
39 | CSVSLPILLFFR | 0.0485 | 0.617
40 | CVVSLPILLFFR | 0.0506 | 0.589
41 | EVTRLDAIYFRI | 0.435 | 0.701
42 | FITLPMCPLLLR | 0.333 | 0.61
43 | FLVSLPILLFFR | 0.0831 | 0.539
44 | GCYMCSVGCWFR | 0.326 | 0.667
45 | GIYMCSVGCWFR | 0.256 | 0.611
46 | GLYACSVGCWFR | 0.386 | 0.678

Row | Sequence | protein stability index [1] | protein stability index [2]
47 | GLYDCSVGCWFR | 0.56 | 0.716
48 | GLYKCSVGCWFR | 0.453 | 0.671
49 | GLYMCEVGCWFR | 0.485 | 0.642
50 | GLYMCGVGCWFR | 0.335 | 0.682
51 | GLYMCQVGCWFR | 0.308 | 0.641
52 | GLYMCSVGCGFR | 0.628 | 0.655
53 | GLYMCSVGCWCR | 0.334 | 0.45
54 | GLYMCSVGCWFD | 0.471 | 0.518
55 | GLYMCSVGCWFI | 0.44 | 0.585
56 | GLYMCSVGCWFM | 0.543 | 0.586
57 | GLYMCSVPCWFR | 0.646 | 0.682
58 | GLYMCSVWCWFR | 0.305 | 0.399
59 | GLYMPSVGCWFR | 0.196 | 0.683
60 | GLYMRSVGCWFR | 0.252 | 0.688
61 | GLYMSSVGCWFR | 0.299 | 0.688
62 | GLYMYSVGCWFR | 0.238 | 0.605
63 | GLYPCSVGCWFR | 0.394 | 0.678
64 | GQYMCSVGCWFR | 0.363 | 0.673
65 | GWYMCSVGCWFR | 0.168 | 0.601
66 | HLVSLPILLFFR | 0.108 | 0.618
67 | HSLRVLLPLYFR | 0.309 | 0.669
68 | KLYMCSVGCWFR | 0.349 | 0.654
69 | KVTRLDAIYFRI | 0.251 | 0.67

Row | Sequence | protein stability index [1] | protein stability index [2]
70 | LLYMCSVGCWFR | 0.348 | 0.571
71 | LSLRVLLPLYFR | 0.311 | 0.616
72 | MLVSLPILLFFR | 0.089 | 0.565
73 | NITLPMCPLLLR | 0.359 | 0.664
74 | RDLRVLLPLYFR | 0.295 | 0.675
75 | RFLRVLLPLYFR | 0.381 | 0.666
76 | RPTRLDAIYFRI | 0.504 | 0.666
77 | RSERVLLPLYFR | 0.365 | 0.674
78 | RSGRVLLPLYFR | 0.372 | 0.665
79 | RSLPVLLPLYFR | 0.186 | 0.672
80 | RSLRCLLPLYFR | 0.408 | 0.681
81 | RSLRKLLPLYFR | 0.474 | 0.67
82 | RSLRVLDPLYFR | 0.556 | 0.721
83 | RSLRVLLELYFR | 0.557 | 0.593
84 | RSLRVLLPLWFR | 0.459 | 0.67
85 | RSLRVLLPLYDR | 0.652 | 0.708
86 | RSLRVLLPLYFRN | 0.204 | 0.5
87 | RSLRVLLPLYGR | 0.595 | 0.642
88 | RSLRVLLPLYVR | 0.202 | 0.35
89 | RSLRVLLWLYFR | 0.166 | 0.524
